{
  "source": "paper PMC2818180",
  "biological_target": "Affinity peptide KRTGQYKL immobilised in PEG hydrogel",
  "assay": "absorption of bFGF into peptide-functionalized hydrogels",
  "data": [
    {"substance": "Recombinant human bFGF (from UniProt P09038 143-288) (ligand)", "values": [
      {"measurement": "bFGF absorbed in gel at 4.4 µM monovalent peptide", "value": 27.3, "unit": "ng/mg-gel"}
    ]}
  ]
}
